Four molecules from patent US20060122108A1 can be followed below.

Experiment [1] has as its target BSA (UniProt P02769). Nature of the experiment: phage ELISA, control well (BSA blocking solution only); phage 1 ng/well; 100% = SEQ 5 phage at 710 ng/well. Background: An ELISA detects its analyte on a solid surface through an enzyme-linked reagent.
In experiment [2] the target is BSA (UniProt P02769). Description: phage ELISA, control well (BSA blocking solution only); phage 122 ng/well; 100% = SEQ 5 phage at 710 ng/well.
Sequence of BSA (P02769 25-607 limits assumed): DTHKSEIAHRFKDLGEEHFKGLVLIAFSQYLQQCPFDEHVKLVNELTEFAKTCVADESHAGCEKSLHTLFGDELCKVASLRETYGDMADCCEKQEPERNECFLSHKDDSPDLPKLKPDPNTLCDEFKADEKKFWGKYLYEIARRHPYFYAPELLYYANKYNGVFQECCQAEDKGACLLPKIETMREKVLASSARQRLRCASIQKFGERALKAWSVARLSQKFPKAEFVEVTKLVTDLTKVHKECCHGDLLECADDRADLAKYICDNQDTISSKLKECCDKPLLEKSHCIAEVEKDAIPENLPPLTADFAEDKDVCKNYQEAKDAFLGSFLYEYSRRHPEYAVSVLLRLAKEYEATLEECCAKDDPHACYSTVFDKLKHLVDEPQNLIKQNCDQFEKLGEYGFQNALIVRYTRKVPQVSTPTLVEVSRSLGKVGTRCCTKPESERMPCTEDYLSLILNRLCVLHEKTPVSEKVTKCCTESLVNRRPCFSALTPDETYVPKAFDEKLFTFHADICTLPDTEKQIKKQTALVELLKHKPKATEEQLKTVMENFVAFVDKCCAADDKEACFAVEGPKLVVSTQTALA
In experiment [3] the target is BSA (UniProt P02769). Description: phage ELISA, control well (BSA blocking solution only); phage 3 ng/well; 100% = SEQ 5 phage at 710 ng/well.
The target of experiment [4] is BSA (UniProt P02769). Nature of the experiment: phage ELISA, control well (BSA blocking solution only); phage 796 ng/well; 100% = SEQ 5 phage at 710 ng/well.
Experiment [5] has as its target BSA (UniProt P02769). Nature of the experiment: phage ELISA, control well (BSA blocking solution only); phage 20 ng/well; 100% = SEQ 5 phage at 710 ng/well.
The target of experiment [6] is BSA (UniProt P02769). Nature of the experiment: phage ELISA, control well (BSA blocking solution only); phage 0 ng/well (printed); 100% = SEQ 5 phage at 710 ng/well.
In experiment [7] the target is BSA (UniProt P02769). Description: phage ELISA, control well (BSA blocking solution only); phage 132 ng/well; 100% = SEQ 5 phage at 710 ng/well.
Experiment [8] addresses BSA (UniProt P02769). Nature of the experiment: phage ELISA, control well (BSA blocking solution only); phage 859 ng/well; 100% = SEQ 5 phage at 710 ng/well.
The target in experiment [9] is BSA (UniProt P02769). Nature of the experiment: phage ELISA, control well (BSA blocking solution only); phage 22 ng/well; 100% = SEQ 5 phage at 710 ng/well.
Experiment [10] addresses BSA (UniProt P02769). Description: phage ELISA, control well (BSA blocking solution only); phage 4 ng/well; 100% = SEQ 5 phage at 710 ng/well.
Experiment [11] addresses BSA (UniProt P02769). Description: phage ELISA, control well (BSA blocking solution only); phage 109 ng/well; 100% = SEQ 5 phage at 710 ng/well.
Experiment [12] concerns the target BSA (UniProt P02769). Nature of the experiment: phage ELISA, control well (BSA blocking solution only); phage 18 ng/well; 100% = SEQ 5 phage at 710 ng/well.
For experiment [13], the target named is BSA (UniProt P02769). Description: phage ELISA, control well (BSA blocking solution only); phage 710 ng/well; 100% = SEQ 5 phage at 710 ng/well.
Experiment [14] concerns the target BSA (UniProt P02769). Nature of the experiment: phage ELISA, control well (BSA blocking solution only); phage 134 ng/well; 100% = SEQ 5 phage at 710 ng/well.
In experiment [15] the target is BSA (UniProt P02769). Description: phage ELISA, control well (BSA blocking solution only); phage 870 ng/well; 100% = SEQ 5 phage at 710 ng/well.

B1: phage presenting SEQ ID NO: 2 (…) (peptide, not shown: large carriers)
chain: LWQPPLIPGIDF
In the case of B1, the percentage of binding was 1% with BSA [1]; 9% with BSA [2]; 2% with BSA [3]; 12% with BSA [4]; 4% with BSA [5]; 0% with BSA [6].

B2: phage presenting SEQ ID NO: 3 (…) (peptide, not shown: large carriers)
chain: QIEPWFTPEDFP
With B2, the percentage of binding with BSA [1] is 0%; with BSA [7] it was 5%; in the experiment with BSA [6] it was 0%; with BSA [8], 10%; with BSA [9], 2%; with BSA [10], 1%.

B3: phage presenting SEQ ID NO: 5 (…) (peptide, not shown: large carriers)
chain: SWLQMPWALVRT
Consider B3, for which the percentage of binding with BSA [11] stood at 3%; with BSA [1], 0%; with BSA [3], 1%; in the experiment with BSA [12], 1%; with BSA [6] it was 0%; with BSA [13], 5%.

B4: phage presenting SEQ ID NO: 4 (…) (peptide, not shown: large carriers)
chain: TRLAPLVFPLDY
Take B4: the percentage of binding with BSA [1] was 0%; in the experiment with BSA [14], 4%; in the experiment with BSA [15], 10%; with BSA [6] it was 0%; in the experiment with BSA [9] it was 1%; in the experiment with BSA [10] it was 0%.
